Assay: yeast display, Sf9 membrane polyspecificity reagent, FACS + sequencing; frameworks hold sequencing errors
Outline: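 Galactose induction of a Saccharomyces cerevisiae BJ5465 synthetic nanobody display library ran 36–48 hours. The cells were then stained for 1 hour at 4 °C with 10% biotinylated, detergent-solubilized Sf9 membrane reagent, pulled down on streptavidin microbeads and FACS-sorted into low and high (top ~1%) gates on expression and reagent-binding fluorescence. Labels for polyreactivity follow the gate of origin.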

Sequence	polyreactivity (PSR sort gate)
QVQLLDSGGGLVQAGGSLRLSCAASGLILVPNTMGWYRQAPGKERELVADIRSGGTTNYADSVKGRFTISRDNAKNTVYLVMNSLKPEDTAVSYCAKEKYDYVGDYEVDYWGHGTQVTVSS	low polyreactivity
QVQLLDSGGGLVQAGGSLRLSCAASGSTISRNAMGWYRQAPGKERELVAAITSKGDSSYYADSVKGRFTISRDNAKNTVYLQMNSLKPEDTAVYYCAKDGVPAQDIGMDYWGQGTQVTVSS	low polyreactivity
QVQLLERGGGLVQAGGSLRLSCMASGSILVDRMSWYRQAPGKEHELVATIYDGGITYYADSMTGRFTISRDNAKNTVYLQMIRQRPEDTAVYYCGASFERYRYHVYCGQGTQVTVSS	low polyreactivity
QVQLLESGAGLVQAGGSLRLIWAASGIIIGHYGMGWYRQAPGKERELVAVISSSGGRTYYADSVKGRFTISRDNAKNTVYLQMNSLKPEDTAVYYCNGGPQVRYWQGTYEYWGQGTQVTVSS	high polyreactivity
QVQLLESGGALVQAVGSLRLSCMASGSILGDRMSWYRQAPGKEHELVATIYDGGITYYADSMKGRFTISRDNAIHTVYLQMNSLRPEDTAVYYCGASLEGYRYNVYCGQGTQVTVSS	low polyreactivity
QVQLLESGGGIVQAGGSLRLSCAASGSIFRYYAMGWYRQAPGKEREFVASITYRGGRTYYADSVKGRFTISRDNAKNTVYLQMNSLKPEDTAVYYCAARTRAGAWTSKYHDYWGQGTQVTVSS	high polyreactivity
QVQLLESGGGIVQAGGSLRLSCAASGSIFWGYAMGWYRQAPGKERELVAAISSSGGNTYYADSVKGRFTISRDNAKNTVYLQMNSLQPEETAVYYCAATPEFYGGKITDVSSQYGYWGQGPQVTVSS	low polyreactivity
QVQLLESGGGLDQAGGSLRLSCAASGRTFDRYAMGWYRQAPGKERELVAAISGRGGSTYYADSVKGRFTISRDNAKNTVYLQMNSLKPEDTAVYYCAARGSLWGAPTDYYYWGQGTQVTVSS	high polyreactivity
QVQLLESGGGLDQAGGSLRLSCAAYGRIFGPNAMGWYRQAPGKERELVAAISWSGGTTRYADSVKGRFTISRDNAKNSVYLQMNSQKPEDTAVYYCAASADDRRSGKRYDSWGHGTQVTVSS	high polyreactivity
QVQLLESGGGLDQAGGTLRLSCAASGGTINLYAMAWYRPAPGKERELVAAISWSGGTTYYADSVKGRFTLSRDNAKNTVYLQIISLKPVDTAVYYCAAYFRTSLGTYDYWGQGTKVTVSS	high polyreactivity
QVQLLESGGGLGQAGGRLRLICAASGRTFTPYAMGWYRPAPGKERELVAAIDTSGGSTYADSVKGRFTISRDNAKNTVYLQMNCQKPEDTAVYYCATRGFYSWDYWYLWEYDYWGQGTQVTVSS	low polyreactivity
QVQLLESGGGLGQAGGSLRLSCAASGSILSINGMGWYRQAPGKERELVATIDGSDGSTFYADSVKGRFTISRDNAKNTVYLQMNSQKPEDTAVYYCAAENFWQTKEYDYWGQGTQVTVSS	low polyreactivity
QVQLLESGGGLLQAGGSLRLSCAASGSIFDFNAMGWYRQAPGKERELVAAITYIGDSTYYADSVKGRFTISRDNAKNTVYLQMNILKPEDTAVYYCANYRYPSRQYSFPLGYDYWGQGTQVTVSS	high polyreactivity
QVQLLESGGGLVHAGGSLRLSCAASGRIFLGNAMGWYIQAPRKERELVASISRGGGTTYYADSVKGRITISRDNAKNTVYLQMNRLKPEDTAVYYCAARVYYVVQHGKYVYWGQGTQVTVSS	high polyreactivity
QVQLLESGGGLVQAGGCLRLSCAASGSIFYPYALGGYRQAPGIVRELVAAISSREGRSYYADSVKGRFTISRDNGKKTVYLQMNSLKPEDTAVYYCAACSFNYGHRFYWGQGSQVTVSS	high polyreactivity
QVQLLESGGGLVQAGGFLRLSCASSGSTFFIYAMGWYRPAPGKERELDAAISWSGGSTYYADSVKGRFTISPDKANNTVYLQMICLKPEYTAVYYCADESYYFDEYYWGQATQVTVSS	high polyreactivity
QVQLLESGGGLVQAGGILRLSCAASGRIIVYYAMGWYRQAPGKERELVAAITRGGSTKYADSVKGRFTISRDNAKNTVYLQMNSLKPEDTAVYYCATATSRRSGYDYWGQGTQVSVSS	high polyreactivity
QVQLLESGGGLVQAGGRLRLSCAASRNTFRQTAMGWNRQAPGKETELVASITSGGSTYYADSVQGRFTISRDNAKNTVYLQMNSLNPEDTAVYYCASRYIRSASWFYRIYDYWGQGTQVTVSS	high polyreactivity
QVQLLESGGGLVQAGGSLRISCAASGSTFVRYPMGWYRQAPGKERELVAGISSGDRTYYADSVKGRFTISRDNAKNTVYLQMNSLKPEYTSVYYCNARPVYLLEGYYWGQGTQVTVSS	low polyreactivity
QVQLLESGGGLVQAGGSLRISCAASGSTFVSNAMGWYRQAPGKERELVAAISRSAGRTYYADSVKGRFTISRDTAKNTVYLQMTSLKPEDTAVYYCAARVVHCFGFWGQGTQVTVSS	high polyreactivity
QVQLLESGGGLVQAGGSLRLSCAASGFNFGGYVMGWYRQAPGKESELVAAISSSGGITHYADSLKGRFTISRDNAKNTVSLQMNRLKPEDTAVYYCNALYRQRYYWGQGTQVTVSS	high polyreactivity
QVQLLESGGGLVQAGGSLRLSCAASGFNFYRYAMGWYRQAPGKERELVAAIRKSGGSTYYADSVKGRFTISRDNAKNTVYCQMNSLKPEDTAVSYCAKRYATDGFGYWGQGTQVSVSS	high polyreactivity

Sequence	polyreactivity (PSR sort gate)
QVQLLESGGGLVQAGGSLRLSCAASGFTFSRYAMGWYRQAPGKERELVAAITSSGGSTYYADSVKGRFTISRDNAKNTVYLQMLSLKPEDSAVYYCAAGKYTASNGYGYWGQGTQVTVSS	high polyreactivity
QVQLLESGGGLVQAGGSLRLSCAASGGTFYSYAMGWYRQAPGKERELVATITRRSGSTYYADSVKGRFTISRDNAKNTVYLQMNSLKPEDTAVYYCAATKYKLLFIHFRYDYWGQGTQVTVSS	high polyreactivity
QVQLLESGGGLVQAGGSLRLSCAASGITFSQYAMGWYRQAPGKERELVAAISWSGGSTYYANSVKGRFTISRDNAKNTVYLQMNSLKPEDTAVYYCAAVPVHTGSLYWGFTTGYDYWGQGTQVTVSS	low polyreactivity
QVQLLESGGGLVQAGGSLRLSCAASGRIFDPYAMGWYRQAPGKERELVAAITGSGDGTYYADTVKGRYTISRYNAKNTVYLQMNRLKPEDTAVYYCAAVGRDRFVIHDYWGQGTQVTVSS	low polyreactivity
QVQLLESGGGLVQAGGSLRLSCAASGRIFGYYTMGWYRQAPGKERELVAGITRRGGRTYYADSVKGRFTISRDNAKNTVYLEMNSLKPEDTAGYYCAVRSGVNFYYWGQGTQVTVSS	high polyreactivity
QVQLLESGGGLVQAGGSLRLSCAASGRIFSENAMGWYRQAPGKERELVAAITGNGGDTYYADSVKGRFTISRDNAMNTVYLQMNSLKPEDTAVYYSAAETGGLGGEYWGQGTHVTVSS	low polyreactivity
QVQLLESGGGLVQAGGSLRLSCAASGRIFVYNVMGWSRQAPGKERELVADINGSGGGTIFADSVKGRFTISRDNAKNNVYFQMNSLKPVDTAVYYCNADSYEYHVPYYDYRYDYWGHGTQVTVSS	low polyreactivity
QVQLLESGGGLVQAGGSLRLSCAASGRIYLGYALGWYRQAPGKERELVAAITSSGGYTYYADSVKGRFTISLDNAKNTVYLQMNSLKPEDTAVYYCNVYRFGWWYTNDYWGQGTQVTVSS	high polyreactivity
QVQLLESGGGLVQAGGSLRLSCAASGRMFGSNAMGWYRQAPGKERELVAAITRGGSTNYADSVKGRFTISRDNAKNTVYFQMNSLKPEDTAVYYCAVRWYRKYNYWGQGTQVTVSS	high polyreactivity
QVQLLESGGGLVQAGGSLRLSCAASGSIFLFYDMGLYRHAPGKERELVATITSGTNTYADSVKGRFTISRDNAKNTGYLQMNSLKPEDTAVYSCAAGFSTASQLDYWGQVTQVTVSS	low polyreactivity
QVQLLESGGGLVQAGGSLRLSCAASGSIFPAYSMGWYRQAPGKERELVASITGSGGSTYYADSVKGRFTISRDNAKNSVYLQMTSLKPEETAVYYCNARYYVYSATVDRYYHFYYWGQGTQVTVSS	high polyreactivity
QVQLLESGGGLVQAGGSLRLSCAASGSIFYYYTMGWYRQAPGKETELVAAISRGGSTNYADSVKGRFTISRDNAKNTVYLQMNSLKPEDTAVYYCAADRLSGRYAYRFDYWGQGTQVTVSS	low polyreactivity
QVQLLESGGGLVQAGGSLRLSCAASGSIIRQNGMVWYRPAPGKEREFVAAITRTGGSTYYADSVKGRFTISRDNAKNTVYLHMNSLKPEDTAGYYCAARGGYRYTRYDYWGQGTQVTVSS	high polyreactivity
QVQLLESGGGLVQAGGSLRLSCAASGSPFYYYARGWYRQAPGKERELVARITYGGSRTYYADSVKGRFTISRDNAKYTVYLQMNSLKPEDTAVYYCNAGRVLYGYYLYDYWGQGTQLTVSS	high polyreactivity
QVQLLESGGGLVQAGGSLRLSCAASGSTFDRNTMGWYRQAPGTVRELVAAITWSSGSTYYADSVKGRFTISRDNAKNTVYLQMNSLKPEDTAVYYCAADRIRYRSRHKYGYWVQGTQVTVSS	low polyreactivity
QVQLLESGGGLVQAGGSLRLSCAASGSTFDYKSMGWYRQAPGKERELVATINDSGGNTYYADSVKGRFTISRDNAKNTVYLQMNSLKPEDTAVYYCATVGYLYTPVVVTWWDWGDYWGQGTQVTVSS	low polyreactivity
QVQLLESGGGLVQAGGSLRLSCAASGSTFRWYAMGWYRQAPGRERELVAAITWSGGRTYYADSVKGRFTISRDNAKNTVYLQMNSLKPEYTAVYYCNAVYYHVVDFDYWGQGTQVTVSS	high polyreactivity
QVQLLESGGGLVQAGGSLRLSCAASGSTFTYNAMGWYRQAPGKERELVAAISSSGGSTYYADSVKGRFTISRDNAKNTVYLQMTSLNPEDTAVYYCAKRWLYTSAFRKMDYWGQGTQVTVSS	high polyreactivity
QVQLLESGGGLVQAGGSLRLSCAASVFTFYGYAMGWYRQAPGKERELVAAISRRGGSTYYADSVKGRFTISRDNAKNTVYLQMNSLKPEDTAVYYCATDRAYYHSYGRFGYWGQGTQVTVSS	high polyreactivity
QVQLLESGGGLVQAGGSLRLSCAPSGFTYRYNAMVWYRQAPGIERELVAAISSRGGSTYYADSVKGRFTISRDNAKNTVYFQMNSLKPEDTGVYYCARDDWVYTNVEMDYWGQGTQVTVSS	high polyreactivity
QVQLLESGGGLVQAGGSLRLSCAPSGRTFARYDMAWYTQAPGKERELVAVISRTGSTYYADSVKGSFTISRDNEKITVYLLMNSLKPEDTAVYYCATVYVYWGQGTQVTVSS	high polyreactivity
